# Data from patent publication US20200239575A1 (UNIVERSITY OF UTAH RESEARCH FOUNDATION, published 2020).
# T1: programmed death-1 receptor (PD-1), mouse, on cells (mouse, UniProt Q02242 25-288)
# T1 construct: whole, on cells; also called surface PD-1; PD-1^+ cells (EL4)
# T1 sequence (looked up): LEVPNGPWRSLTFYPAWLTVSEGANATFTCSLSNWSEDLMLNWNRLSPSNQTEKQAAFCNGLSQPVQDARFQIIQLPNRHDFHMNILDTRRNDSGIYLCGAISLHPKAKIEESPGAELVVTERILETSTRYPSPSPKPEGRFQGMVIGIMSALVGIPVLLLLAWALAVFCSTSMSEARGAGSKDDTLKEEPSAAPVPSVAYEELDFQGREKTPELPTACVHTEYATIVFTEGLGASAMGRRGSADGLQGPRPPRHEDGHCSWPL
# B1: αPD-1-ABD-PE (other)
# chain: HHHHHHGGGGSEVQLQESGPGLVKPSQSLSLTCSVTGYSITSSYRWNWIRKFPGNCLEWMGYINSAGISNYNPSLKRRISITRDTSKNQFFLQVNSVTTEDAATYYCARSDNMGTTPFTYWGQGTLVTVSSGGGGSGGGGSGGGGSDIVMTQGTLPNPVPSGESVSITCRSSKSLLYSDGKTYLNWYLQRPGQSPQLLIYWMSTRASGVSDRFSGSGSGTDFTLKISGVEAEDVGIYYCQQGLEFPTFGCGTKLELKGGGGSGGGGSGGGGSLAEAKVLANRELDKYGVSDFYKRLINKAKTVEGVEALKLHILAALPGGGGSGGGGSGGGGSRHRQPRGWEQLPTGAEFLGDGGDVSFSTRGTQNWTVERLLQAHRQLEERGYVFVGYHGTFLEAAQSIVFGGVRARSQDLDAIWRGFYIAGDPALAYGYAQDQEPDARGRIRNGALLRVYVPRSSLPGFYRTSLTLAAPEAAGEVERLIGHPLPLRLDAITGPEEEGGRLETILGWPLAERTVVIPSAIPTDPRNVGGDLDPSSIPDKEQAISALPDYASQPGKPPREDLK
# modifications: Alexa Fluor 647 NHS ester label in the flow cytometry assays (sites not given)
# notes: Order NH2-HisTag-GGGGS-VH-(GGGGS)3-VL-(GGGGS)3-ABD-(GGGGS)3-PE; made in E. coli Shuffle T7; theoretical molecular weight 57.9 kDa; also called the immunotoxin; the toxin
# B2: αPD-1-PE (other)
# chain: HHHHHHGGGGSEVQLQESGPGLVKPSQSLSLTCSVTGYSITSSYRWNWIRKFPGNCLEWMGYINSAGISNYNPSLKRRISITRDTSKNQFFLQVNSVTTEDAATYYCARSDNMGTTPFTYWGQGTLVTVSSGGGGSGGGGSGGGGSDIVMTQGTLPNPVPSGESVSITCRSSKSLLYSDGKTYLNWYLQRPGQSPQLLIYWMSTRASGVSDRFSGSGSGTDFTLKISGVEAEDVGIYYCQQGLEFPTFGCGTKLELKGGGGSGGGGSGGGGSRHRQPRGWEQLPTGAEFLGDGGDVSFSTRGTQNWTVERLLQAHRQLEERGYVFVGYHGTFLEAAQSIVFGGVRARSQDLDAIWRGFYIAGDPALAYGYAQDQEPDARGRIRNGALLRVYVPRSSLPGFYRTSLTLAAPEAAGEVERLIGHPLPLRLDAITGPEEEGGRLETILGWPLAERTVVIPSAIPTDPRNVGGDLDPSSIPDKEQAISALPDYASQPGKPPREDLK
# notes: Control protein without the ABD
# B3: ABD-PE (other)
# chain: HHHHHHGGGGSLAEAKVLANRELDKYGVSDFYKRLINKAKTVEGVEALKLHILAALPGGGGSGGGGSGGGGSRHRQPRGWEQLPTGAEFLGDGGDVSFSTRGTQNWTVERLLQAHRQLEERGYVFVGYHGTFLEAAQSIVFGGVRARSQDLDAIWRGFYIAGDPALAYGYAQDQEPDARGRIRNGALLRVYVPRSSLPGFYRTSLTLAAPEAAGEVERLIGHPLPLRLDAITGPEEEGGRLETILGWPLAERTVVIPSAIPTDPRNVGGDLDPSSIPDKEQAISALPDYASQPGKPPREDLK
# modifications: Alexa Fluor 647 NHS ester label in the flow cytometry assays (sites not given)
# notes: Untargeted control protein without the αPD-1 scFv; also called labeled ABD-PE
# B4: αPD-1 (full IgG) (antibody, V domains shown)
# VH: EVQLQESGPGLVKPSQSLSLTCSVTGYSITSSYRWNWIRKFPGNRLEWMGYINSAGISNYNPSLKRRISITRDTSKNQFFLQVNSVTTEDAATYYCARSDNMGTTPFTYWGQGTLVTVSS
# VL: DIVMTQGTLPNPVPSGESVSITCRSSKSLLYSDGKTYLNWYLQRPGQSPQLLIYWMSTRASGVSDRFSGSGSGTDFTLKISGVEAEDVGIYYCQQGLEFPTFGGGTKLELK
# notes: Rat anti-mouse PD-1 mAb, IgG2a, κ; also called intact αPD-1; αPD-1 IgG
# Assays:
# [1] = biological target: T1, programmed death-1 receptor (PD-1), …; test: flow cytometry, EL4 cells, competitor PD-L1-Fc 500 nM, 4 °C (FIG. 8g)
# [2] = biological target: T1, programmed death-1 receptor (PD-1), …; test: flow cytometry dose-response on 1 million EL4 cells, 4 °C 30 min, Alexa Fluor 647-labelled; EC50 of the PD-1^+ fraction taken as Kd (FIG. 10d)
# [3] = biological target: T1, programmed death-1 receptor (PD-1), …; test: flow cytometry, binding and uptake by EL4 against B16 cells (FIG. 4B)
# [4] = biological target: T1, programmed death-1 receptor (PD-1), …; test: cell-based or functional assay
# [5] = biological target: T1, programmed death-1 receptor (PD-1), …; test: flow cytometry, 4 °C 30 min, primary T cells (FIG. 8c)
# [6] = biological target: T1, programmed death-1 receptor (PD-1), …; test: flow cytometry, 4 °C 30 min, EL4 against B16 cells (FIG. 10c)
# [7] = biological target: T1, programmed death-1 receptor (PD-1), …; test: flow cytometry, 37 °C 30 min, EL4 against B16 cells (FIG. 10e)
# [8] = biological target: T1, programmed death-1 receptor (PD-1), …; test: flow cytometry, 37 °C 30 min, primary T cells (FIG. 8e)
# [9] = biological target: T1, programmed death-1 receptor (PD-1), …; test: flow cytometry, 4 °C 30 min, primary B cells (FIG. 8d)
# [10] = biological target: T1, programmed death-1 receptor (PD-1), …; test: flow cytometry, EL4 cells, competitor PD-L1-Fc 500 nM, 37 °C (FIG. 8g)
# [11] = biological target: T1, programmed death-1 receptor (PD-1), …; test: flow cytometry, 37 °C 30 min, primary B cells (FIG. 8f)
# human serum albumin = biological target: T2, human serum albumin (human, UniProt P02768 25-609); test: native PAGE of a 1-to-1 mixture (FIG. 14b)
# T2 construct: also called HSA
# mouse serum albumin = biological target: T3, mouse serum albumin (mouse, UniProt P07724 25-608); test: native PAGE of a 1-to-1 mixture (FIG. 14a)
# T3 construct: also called MSA; mouse albumin
# [12] = biological target: T1, programmed death-1 receptor (PD-1), …; test: flow cytometry, Alexa Fluor 647-labelled ABD-PE, 4 °C 30 min, primary T cells, primary B cells, EL4 and B16 cells
binder,measurement,setting,value
B1,fold decrease of MFI with PD-L1-Fc against αPD-1-ABD-PE alone,[1],~8 fold
same,Kd,[2],12 nM
same,"fold binding and uptake, EL4 over B16 cells",[3],11.7 fold
same,IC50 of cytotoxicity to EL4 cells (FIG. 2C),[4],1.1 nM
same,"IC50 of cytotoxicity to PD-1^+ primary B cells (72 h, live cell count by flow cytometry)",[4],0.47 nM
same,"IC50 of cytotoxicity to PD-1^+ primary T cells (72 h, live cell count by flow cytometry)",[4],0.43 nM
same,"IC50 of cytotoxicity to wildtype EL4 cells (MTS assay, 72 h)",[4],0.64 nM
same,"fold toxicity, wildtype EL4 cells against PD-1 knockout EL4 cells",[4],> 1000 fold
same,"fold MFI, PD-1^+ over PD-1^- primary T cells",[5],> 4 fold
same,"fold MFI, EL4 over B16 cells",[6],> 3 fold
same,"fold MFI (binding and uptake), EL4 over B16 cells",[7],~12 fold
same,"fold MFI (binding and uptake), PD-1^+ over PD-1^- primary T cells",[8],> 8 fold
same,"fold MFI, PD-1^+ over PD-1^- primary B cells",[9],> 5 fold
same,fold decrease of MFI with PD-L1-Fc against αPD-1-ABD-PE alone,[10],~25 fold
same,"fold MFI (binding and uptake), PD-1^+ over PD-1^- primary B cells",[11],> 7 fold
B2,binding result,human serum albumin,no binding
same,binding result,mouse serum albumin,no binding
B3,binding result,[12],no binding (tested: 100 nM)
B4,Kd,[2],3.4 nM
